# In paper PMC10830566 (2024):
# T1: endothelial protein C receptor (EPCR), extracellular region, with a C-terminal 12xHis tag (human, UniProt Q9UNN8 18-210)
# T1 chain: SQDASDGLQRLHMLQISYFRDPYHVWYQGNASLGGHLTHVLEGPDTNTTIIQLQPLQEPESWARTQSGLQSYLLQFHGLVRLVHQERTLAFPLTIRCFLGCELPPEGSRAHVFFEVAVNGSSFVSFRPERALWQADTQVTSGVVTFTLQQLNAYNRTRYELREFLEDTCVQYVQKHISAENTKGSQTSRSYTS
# B1: activated protein C (APC) (enzyme)
# chain 1: ANSFLEELRHSSLERECIEEICDFEEAKEIFQNVDDTLAFWSKHVDGDQCLVLPLEHPCASLCCGHGTCIDGIGSFSCDCRSGWEGRFCQREVSFLNCSLDNGGCTHYCLEEVGWRRCSCAPGYKLGDDLLQCHPAVKFPCGRPWKRMEKKRSHL
# chain 2: LIDGKMTRRGDSPWQVVLLDSKKKLACGAVLIHPSWVLTAAHCMDESKKLLVRLGEYDLRRWEKWELDLDIKEVFVHPNYSKSTTDNDIALLHLAQPATLSQTIVPICLPDSGLAERELNQAGQETLVTGWGYHSSREKEAKRNRTFVLNFIKIPVVPHNECSEVMSNMVSENMLCAGILGDRQDACEGDSGGPMVASFHGTWFLVGLVSWGEGCGLLHNYGVYTKVSRYLDWIHGHIRDKEAPQKSWAP
# modifications: gamma-carboxyglutamate in the Gla domain of the light chain (incl. Gla7 = precursor 49); light and heavy chains disulfide-linked; activation peptide 200-211 and Lys-Arg 198-199 removed …; chain limits taken from the UniProt features
# Assays:
# [1] = molecular target: T1, endothelial protein C receptor (EPCR), …; assay: BLI
# [2] = molecular target: T1, endothelial protein C receptor (EPCR), …; assay: BLI
binder,measurement,setting,value
B1,koff,[1],0.0021 s⁻¹
same,Kd,[2],0.067 µM
